Target: T1, Ligase IV (UniProt P49917 1-911)
T1 construct: DNA Ligase IV, the subunit of XL; also called DNA Ligase IV
T1 sequence (looked up): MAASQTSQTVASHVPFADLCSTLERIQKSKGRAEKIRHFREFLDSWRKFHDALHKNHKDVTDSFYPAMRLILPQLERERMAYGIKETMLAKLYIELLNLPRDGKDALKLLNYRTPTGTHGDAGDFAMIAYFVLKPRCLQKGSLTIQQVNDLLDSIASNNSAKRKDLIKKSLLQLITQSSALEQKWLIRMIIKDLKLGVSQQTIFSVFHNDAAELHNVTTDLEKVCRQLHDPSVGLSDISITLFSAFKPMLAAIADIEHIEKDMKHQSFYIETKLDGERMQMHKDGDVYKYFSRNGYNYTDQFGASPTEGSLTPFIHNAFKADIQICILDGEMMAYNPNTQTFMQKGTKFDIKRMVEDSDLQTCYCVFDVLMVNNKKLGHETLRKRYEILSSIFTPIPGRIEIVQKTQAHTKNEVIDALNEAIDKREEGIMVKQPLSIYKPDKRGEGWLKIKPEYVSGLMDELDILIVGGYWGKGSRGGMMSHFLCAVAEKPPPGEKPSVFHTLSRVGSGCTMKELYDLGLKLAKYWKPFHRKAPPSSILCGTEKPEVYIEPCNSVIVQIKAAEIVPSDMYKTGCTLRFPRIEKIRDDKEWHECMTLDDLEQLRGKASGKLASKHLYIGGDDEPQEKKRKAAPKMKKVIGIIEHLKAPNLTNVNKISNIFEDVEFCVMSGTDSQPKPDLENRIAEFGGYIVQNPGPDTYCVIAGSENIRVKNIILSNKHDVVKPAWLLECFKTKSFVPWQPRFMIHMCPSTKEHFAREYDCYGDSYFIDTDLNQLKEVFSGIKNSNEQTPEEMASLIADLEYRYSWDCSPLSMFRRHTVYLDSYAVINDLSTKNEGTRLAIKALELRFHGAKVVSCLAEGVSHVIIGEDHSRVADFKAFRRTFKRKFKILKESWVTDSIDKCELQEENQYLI
Conditions: both partners purified

- stoichiometry N: < 1 XRCC4 dimer to Ligase IV molar ratio
B1: XRCC4 (natural protein, UniProt Q13426 1-336, looked up)
chain: MERKISRIHLVSEPSITHFLQVSWEKTLESGFVITLTDGHSAWTGTVSESEISQEADDMAMEKGKYVGELRKALLSGAGPADVYTFNFSKESCYFFFEKNLKDVSFRLGSFNLEKVENPAEVIRELICYCLDTIAENQAKNEHLQKENERLLRDWNDVQGRFEKCVSAKEALETDLYKRFILVLNEKKTKIRSLHNKLLNAAQEREKDIKQEGETAICSEMTADRDPVYDESTDEESENQTDLSGLASAAVSKDDSIISSLDVTDIAPSRKRRQRMQRNLGTEPKMAPQENQLQEKENSRPDSSLPETSKKEHISAENMSLETLRNSSPEDLFDEI
notes: also called XRCC4 homodimer
